Where a name gives a salt, the structure may show the parent alone.
How the values were obtained:
[1] = target: T1, L-threonine dehydrogenase (TDH) (Escherichia coli, UniProt P07913); experiment: fluorimetric NADH formation assay, titration at […] L-Thr and […] NAD+; also affinity chromatography from E. coli lysate on immobilized compound […]; type: biochemical
T1 sequence (P07913 1-341): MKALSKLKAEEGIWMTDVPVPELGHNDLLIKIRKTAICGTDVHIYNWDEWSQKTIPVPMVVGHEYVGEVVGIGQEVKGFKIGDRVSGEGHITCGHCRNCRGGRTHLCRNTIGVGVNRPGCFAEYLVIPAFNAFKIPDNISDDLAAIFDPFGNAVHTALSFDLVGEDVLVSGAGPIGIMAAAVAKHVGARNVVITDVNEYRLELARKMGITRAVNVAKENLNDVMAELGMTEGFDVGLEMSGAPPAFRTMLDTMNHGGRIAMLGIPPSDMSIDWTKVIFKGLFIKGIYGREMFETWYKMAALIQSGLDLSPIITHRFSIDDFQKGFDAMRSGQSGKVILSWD

purified protein [2] = substrate: C[C@@H](O)[C@H](N)C(=O)O; experiment: purified protein; type: biochemical, Escherichia coli; settings: NAD+; Zn2+ cooperative binding of L-Thr; pH 8.4; 25.0 °C
purified protein [3] = substrate: NC(=O)c1ccc[n+]([C@@H]2O[C@H](COP(=O)([O-])OP(=O)(O)OC[C@H]3O[C@@H](n4cnc5c(N)ncnc54)[C@H](O)[C@@H]3O)[C@@H](O)[C@H]2O)c1; experiment: purified protein; type: biochemical, Escherichia coli; settings: Zn2+ non-cooperative binding; pH 8.4; 25.0 °C; varied: cofactor

With `NCCc1c[nH]n(-c2ccccn2)c1=O` [compound 1, 4-(2-aminoethyl)-2-(pyridin-2-yl)-1,2-dihydro-3H-pyrazol-3-one dihydrochloride] the EC50 [1] was 50 ± 10 µM.

B1: L-threonine dehydrogenase (TDH) (Escherichia coli K-12) (protein)
chain: MKALSKLKAEEGIWMTDVPVPELGHNDLLIKIRKTAICGTDVHIYNWDEWSQKTIPVPMVVGHEYVGEVVGIGQEVKGFKIGDRVSGEGHITCGHCRNCRGGRTHLCRNTIGVGVNRPGCFAEYLVIPAFNAFKIPDNISDDLAAIFDPFGNAVHTALSFDLVGEDVLVSGAGPIGIMAAAVAKHVGARNVVITDVNEYRLELARKMGITRAVNVAKENLNDVMAELGMTEGFDVGLEMSGAPPAFRTMLDTMNHGGRIAMLGIPPSDMSIDWTKVIFKGLFIKGIYGREMFETWYKMAALIQSGLDLSPIITHRFSIDDFQKGFDAMRSGQSGKVILSWD
B1 gave a K0.5 (purified protein [2]) of 280 ± 10 µM, a Vmax (purified protein [2]) of 6 µM/min and a K0.5 (purified protein [3]) of 43 ± 3 µM. For the same molecule, the Vmax (purified protein [3]) was 3.42 µM/min.

Reference: paper PMC12693531, “Cooperativity in Escherichia coli L-Threonine Dehydrogenase and Its Inhibition by an Antibacterial N-Pyridylpyrazolone Derivative” (International Journal of Molecular Sciences, 2025)
